# Laboratory results taken from patent US20080020978A1 (Amgen, published 2008).
# Numbering of substitutions follows the chain as printed.
# B1: SEQ ID NO 808 (peptide)
# peptide: Ac-WVTHRLAGLLSRSGGVVRKNFVPTDVGPFAF-NH2
# B2: SEQ ID NO 809 (peptide)
# peptide: Ac-WVTHRLAGLLSRSGGVVRK(20 kDa MeO‑PEG)NFVPTDVGPFAF-NH2
# B3: SEQ ID NO 791 (peptide)
# peptide: WVTHXLAGLLSXSGGVVRKNFVPTDVGPFAF
# modifications: Ac-WVTH[Cit]LAGLLS[Cit]SGG VVRK^(20 kDa MeO-PEG)NFVPTDVGPFAF-amide
# B4: SEQ ID NO 173 (peptide)
# peptide: B3 peptide with R18X, F29X
# modifications: Ac-WVTH[Cit]LAGLLS[Cit]SGGVV[hArg]K(20 KPEGald)NFVPTDVGP[1-Nal]AF-NH2
# B5: SEQ ID NO 739 (peptide)
# peptide: B3 peptide with R18X
# modifications: Ac-WVTH[Cit]LAGLLS[Cit]SGGVV[hArg]KNFVPTDVGPFAF-NH2
# Key:
# [1] = target: T1, rat ortholog of the CGRP1 receptor (rat, UniProt Q63118 24-464; Q9JJ74 27-148, limits assumed); assay: cell-based or functional assay
# [2] = target: T2, CGRP1 receptor (CRLR/RAMP1 complex) of human neuroblastoma SK-N-MC cells (human, UniProt Q16602 23-461; O60894 27-148); assay: cell-based or functional assay
# [3] = target: T1, rat ortholog of the CGRP1 receptor; assay: cell-based or functional assay; remark: listed apart in the source
# [4] = target: T2, CGRP1 receptor (CRLR/RAMP1 complex) of …; assay: 125I-hαCGRP competition, SK-N-MC membranes
# T1 sequence (Q63118 24-464 limits assumed, chain 1 of 2): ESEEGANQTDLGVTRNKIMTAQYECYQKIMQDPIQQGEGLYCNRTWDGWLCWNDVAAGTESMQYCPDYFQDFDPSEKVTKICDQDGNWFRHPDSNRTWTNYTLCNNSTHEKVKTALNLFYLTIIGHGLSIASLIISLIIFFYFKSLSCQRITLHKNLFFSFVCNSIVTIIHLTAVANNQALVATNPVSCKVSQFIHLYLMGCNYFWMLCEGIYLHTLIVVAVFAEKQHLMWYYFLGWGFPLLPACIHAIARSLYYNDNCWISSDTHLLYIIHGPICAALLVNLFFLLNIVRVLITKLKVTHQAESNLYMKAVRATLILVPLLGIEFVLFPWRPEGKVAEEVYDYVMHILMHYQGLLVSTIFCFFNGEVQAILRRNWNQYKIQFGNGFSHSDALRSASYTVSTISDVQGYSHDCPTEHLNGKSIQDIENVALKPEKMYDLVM
# T1 sequence (Q9JJ74 27-148 limits assumed, chain 2 of 2): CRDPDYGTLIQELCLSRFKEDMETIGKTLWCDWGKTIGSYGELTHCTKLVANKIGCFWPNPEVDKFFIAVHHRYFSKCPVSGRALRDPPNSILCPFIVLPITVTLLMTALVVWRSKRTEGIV
# T2 sequence (Q16602 23-461, chain 1 of 2): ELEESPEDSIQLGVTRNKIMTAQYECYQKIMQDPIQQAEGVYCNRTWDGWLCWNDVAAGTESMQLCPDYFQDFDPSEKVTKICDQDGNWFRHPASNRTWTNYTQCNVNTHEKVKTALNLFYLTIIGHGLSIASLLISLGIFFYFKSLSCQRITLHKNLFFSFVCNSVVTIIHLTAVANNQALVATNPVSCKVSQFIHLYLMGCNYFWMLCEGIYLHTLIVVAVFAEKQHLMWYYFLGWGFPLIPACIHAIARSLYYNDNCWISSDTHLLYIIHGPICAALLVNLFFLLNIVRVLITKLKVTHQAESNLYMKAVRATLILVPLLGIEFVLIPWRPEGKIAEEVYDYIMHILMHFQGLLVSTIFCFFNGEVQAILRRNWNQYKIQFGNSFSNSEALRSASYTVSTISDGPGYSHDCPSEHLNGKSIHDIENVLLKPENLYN
# T2 sequence (O60894 27-148, chain 2 of 2): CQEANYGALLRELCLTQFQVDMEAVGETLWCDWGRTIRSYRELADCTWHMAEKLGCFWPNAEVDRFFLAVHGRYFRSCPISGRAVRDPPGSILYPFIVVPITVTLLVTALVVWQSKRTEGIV
Binder,in vitro IC50 (rat ortholog; nM) [1] [nM],IC50 [2] [pM],fold loss of potency against SEQ ID NO:31 [3] [fold],Ki [4] [pM]
B1,5.4,,,
B2,6.4,320,,
B3,131,3740,~9,1830
B4,49.5,,,840
B5,8.9,,,530
